Test: soluble on expression in E. coli; label from the status in PepcDB or PDB records

Row | Sequence | soluble on expression in E. coli
1 | MPVERVIDRPTPEEHLLERILATENMDLAWKRVRANKGAPGVDGVTIDAFPERFRPLWGDIRASLATGTYQPQPVLRVEIPKPTGGTRPLGIPTVLDRLIQQATAQVLTPIFDPEFSASSFGFRPGRSAHNAVRQLREYLRQGYRIAVDIDLAKFFDTVNHDLLMTMVGRRVRDKRVLTLIGRYLRAGVEVDGRLEKTRMGVPQGGPLSPLLANILLDHLDKELESRGHKFVRYADDFVILVKSERAGERVMGSVRKYLTNKLKLTVNEDKSKVARSGDLSFLGFVFKGTKILWSDQAYKEFRRRVRKYTGRSWFVSMEYRLNKLSTYLRGWMGYFGIAEAYRDIPEIDGWIRRRVRLCYWKQWRWCRTKIRNLLKLGVQLGTSIRAGLNRNGPWAMSRRLAAQHGMTNQWLKDQGLVSVKELWVKIHYPATARLEHHHHHH | not soluble
2 | MSTIIMDLCSYTRLGLTGYLLSRGVKKREINDIETVDDLAIACDSQRPSVVFINEDCFIHDASNSQRIKLIINQHPNTLFIVFMAIANVHFDEYLLVRKNLLISSKSIKPESLDDILGDILKKETTITSFLNMPTLSLSRTESSMLRMWMAGQGTIQISDQMNIKAKTVSSHKGNIKRKIKTHNKQVIYHVVRLTDNVTNGIFVNMR | not soluble
3 | MSLNQLTDHVTLRHGATLNNRIVMSPMQTHSGLKGGFASDDTIQYYSARSRAAGMLITEFHYVSENGGPAYVPGYPEQLGAYSDAHLEGLRKTVQALKKDGNKAILQIHHAGRAAVGRHVNGLDVVAPSAIDFSFLDYPVRELTITEIDDIILDFGKATKRAIDAGFDGVEIHGANHYLIQQFFSKLSNLRTDKWGGSLNKRMAFPLAVVKEVKAIVDEYAPKGFIIGYRISPEELHGKNVGYDYTEALTLISEVIKYELDYIHLSLWAGYNSKPENSEKSYAELFKEILDDKTKLLIVGGIFGEDTATDAIENYADLIAVARGTLIDPNFAKKVTEGKGDTILHKISPETVEYSHLTPGLLEAFSREDSLGLPPLPGGETIRHLHTGKYDEGHHHHHH | soluble
4 | MGSDKIHHHHHHMSLVRLQDVSVRFDNTQILREAFFRLEPRDRVGLIGKNGSGKTTMLQLILDRITPESGTVTVEPGTRIGYFSQFSELNGASTITDVLDGLFSEIKAVEAELASIDTAIAGDPAGAELDRLIARQAELFEDMDRLDGWDYPRRIDKVLTTLGFSDAHRVCAIDELSGGWRNRAALAKILLEDPDVLLLDEPTNFLDVAGVEWLESWFRDFKGAAIIVSHDRKFLDAVVTRIIEVENFHLHEYPGNFGEYIVQKQFRLKSLEQQFVHESELLAFEAEGIADRREAAKAASRGLGNQLAKIKKSRTPRPVDQIVTEIYGGLHVKDVLCRVEGLGKSYGDKALFTGLGFEIRRGNRIVVLGANGSGKSTLLKVLTGEEEADAGVVSWAKGPGFVSYNRMLEELDDADTVSHAVNALPDSLAFSATRKSVNRFLAMFQFSEADLKQKIGNLSGGQKARVAMAQCLLSGASVLLLDEPTNHLDLSSTQVMERALMHFPGAVVVVSHDRFFSEKIANRYLVFGADAALPGEVEVRAA | not soluble
5 | MGSDKIHHHHHHMLDENEDIHPLFAGAPATTEFKKLRKRIVRYTREAIEQYGMVERRADGSTPKWLVCLSGGKDSYTLLAVLYELKWRGLLPVDLLACNLDQGQPGFPSTVLPEFLDRMGVPNRIEYQDTYSVVVDKVPQGRTYCALCSRLRRGNLYRIAREEGCSAVVLGHHRDDILETFFMNLFHGGRLATMPPKLVNEEGDLFVFRPLAHVAEADCEKFARAMNYPIIPCDLCGSQDGLQRQQVKQILDGWEKNRPGRRQVMFRALMNARPSHLLDPKLFDFQGLELGSREKGENFGEIPLLR | not soluble
6 | MSLEEAVDLSVLYVEDDELSRSGIFNALKRKVKNIHFAANGQEGLEVFKEHRPDVVITDIKMPLLNGLEMAKQILEMEPSVEIIVATAFEDAELFKRAIDLDVDKYLTKPLDVTQILMHLKRIEMQKRLEREFEVYSRALNEVASIFWFDLELECLKVNPRAIASGGEHGVENEKLKEMARLALEKGGRHQEGNKIFSVAFNVAKEPKGFCLCVMESMEEGHHHHHH | soluble
7 | MSLCGLLGILTANGNAEAFVPALERALPCMRHRGPDDAGTWHDADAAFGFNRLSIIDIAHSHQPLRWGPADEPDRYAMTFNGEIYNYVELRKELSDLGYAFNTSGDGEPIVVGFHHWGESVVEHLRGMFGIAIWDTKEKSLFLARDQFGIKPLFYATTEHGTVFSSEKKTILEMAEEMNLDLGLDKRTIEHYVDLQYVPEPDTLHAQISRLESGCTATVRPGGKLEQKRYFKPQFPVQKVVKGKEQDLFDRIAQVLEDSVEKHMRADVTVGSFLSGGIDSTAIAALAKRHNPDLLTFTTGFEREGYSEVDVAAESAAAIGAEHIVKIVSPEEYANAIPKIMWYLDDPVADPSLVPLYFVAAEARKHVKVVLSGEGADELFGGYTIYKEPLSLAPFEKIPSPLRKGLGKLSKVLPDGMKGKSLLERGSMTMEERYYGNARSFNFEQMQRVIPWAKREWDHREVTAPIYAQSRNFDPVARMQHLDLFTWMRGDILVKADKINMANSLELRVPFLDKEVFKVAETIPYDLKIANGTTKYALRRALEQIVPPHVLHRKKLGFPVPMRHWLAGDELFGWAQDTIKESGTEDIFNKQAVLDMLNEHRDGVSDHSRRLWTVLSFMVWHGIFVENRIDPQIEDRSYPVEEGHHHHHH | soluble
8 | MQYRRQPCSGVVKFNDAITLIDAGLHDLADRWSPGSFQQFLLTHYHMDHVQGLFPLRWGVGDPIPVYGPPDEQGCDDLFKHPGLLDFSHTVEPFVVFDLQGLQVTPLPLNHSKLTFGYLLETAHSRVAWLSDTAGLPEKTLKFLRNNQPQVMVMDCSHPPRADAPRNHCDLNTVLALNQVIRSPRVILTHISHQFDAWLMENALPSGFEVGFDGMEIGVALEHHHHHH | not soluble
9 | MADPQGFIKYSRREPAHRPVPLRLMDHSEVYEKAPAGQIEEQAARCMDCGVPFCHEGCPLGNIIPEWNDLVRQGRWKEAYDRLHATNNFPEFTGRLCPAPCEGACVLGINDDSVTIKNVELEIVEKAFREGWVQPVIPSMSTGLSVAVVGSGPAGLAAAQQLTRAGHSVTVFERDDRLGGLMRYGVPEYKMENRWIDRRIEQMEAEGTTFQVGTSPRAAELALFDAILLATGTPVARELSVPGHDLNGIHAAMDYLTAQNRINEGDGEVSPINAKGKKVVIIGGGDTGTDCFGTALRQGAESVTQFDIRPRAPFQRADSTPWPMYPNLFRTATAHEEGEYIITGDESADEIAALGLAERAAGSTLGERKFAVNTVEFHGNNGHVTGLTGNQIRVVNGKREPIEGTEFPFEADLVLVALGFTGAEQGGLAHELGVGFDDRGRILRDSEYRSPTNSRVYIAGDNGRGQSLIVWAIAEGRACAAAIDADLMGETALPVAVAPQDVPLAVLEHHHHHH | not soluble
10 | MDALIAQLQRQFRDYTISLYQQGFLDDQFTELKKLQDDGSPDFVSEVLSLFFEDCVKLISNMARALDTTGTVDFSQVGASVHQLKGSSSSVGAKRVKTLCVSFKECCEAKNYEGCVRCLQQVDIEYKALKTKLQDMFNLEKQIIQAGGIVPQVDIN | soluble
11 | MHRGITVQTSDLDDGVTGVVGKVYIEASPKHVWAAITDYNNHKSFVPKLIDSGLISDNGREQVMFERGKTGIFLFRKTVYIKLSLQGEYPKRLDFHQIEGDFKVYEGDWLIERASDGKGSILTFRAKIKPDFFAPAMFVRKVQQNDLPMVLAAMKKRAESAEGSLEHHHHHH | not soluble
12 | MGHQNAAVSENQNHDDGAASSPGFKLVGFSKFVRKNPKSDKFKVKRFHHIEFWCGDATNVARRFSWGLGMRFSAKSDLSTGNMVHASYLLTSGDLRFLFTAPYSPSLSAGEIKPTTTASIPSFDHGSCRSFFSSHGLGVRAVAIEVEDAESAFSISVANGAIPSSPPIVLNEAVTIAEVKLYGDVVLRYVSYKAEDTEKSEFLPGFERVEDASSFPLDYGIRRLDHAVGNVPELGPALTYVAGFTGFHQFAEFTADDVGTAESGLNSAVLASNDEMVLLPINEPVHGTKRKSQIQTYLEHNEGAGLQHLALMSEDIFRTLREMRKRSSIGGFDFMPSPPPTYYQNLKKRVGDVLSDDQIKECEELGILVDRDDQGTLLQIFTKPLGDRPTIFIEIIQRVGCMMKDEEGKAYQSGGCGGFGKGNFSELFKSIEEYEKTLEAKQLVG | soluble
13 | MSLAANMYRVGDYVYFENSSSNPYLIRRIEELNKTASGNVEAKVVCFYRRRDISNTLIMLADKHAKEIEEESETTVEADLTDKQKHQLKHRELFLSRQYESLPATHIRGKCSVALLNETESVLSYLDKEDTFFYSLVYDPSLKTLLADKGEIRVGPRYQADIPEMLLEGESDEREQSKLEVKVWDPNSPLTDRQIDQFLVVARAVGTFARALDCSSSVRQPSLHMSAAAASRDITLFHAMDTLYRHSYDLSSAISVLVPLGGPVLCRDEMEEWSASEASLFEEALEKYGKDFNDIRQDFLPWKSLTSIIEYYYMWKTTDRYVQQKRLKAAEAESKLKQVYIPTYSKPNPNQISTSNGKPGAVNGAVGTTFQPQNPLLGRACESCYATQSHQWYSWGPPNMQCRLCAICWLYWKKYGGLKMPTQSEEEKLSPSPTTEDPRVRSHVSRQAMQGMPVRNTGSPKSAVKTRQAFFLHTTYFTKFARQVCKNTLRLRQAARRPFVAINYAAIRAECKMLLNSEGHHHHHH | not soluble
14 | GSSGSSGDKKAYFYHSSFQILNVEYTEALNSPATHEYRTLSERIEAMITDEFRGSSLKSEFIRTHVVKLRKEGTGVVADVVMKFRSSKRNNRKVMKTRIQSVLRRLSSSGNLEIAPSNEITSLTDQDT | soluble
15 | MLGVLKKVFDPNKRQLARLEKIADQVDALGPEMARLSDEQLRQKTEEFKARYQQGESLDDLLVEAFAVVREGAKRVLGLYPYKVQIMGGVVLHEGDIAEMKTGEGKTLTATMPVYLNALTGRGVHVVTVNEYLATRDATEMGKLYEFLGMTVGLNLSGMSREEKQAAYNADITYGTNNEFGFDYLRDNMVLYKEHIVQRPLYYAIIDEVDSILIDEARTPLIISGTAQKSTKLYVQANAFVRTLRKDVDYTYDEKTKSVQLTEEGINKAERAFGIDNLFDLKHVTLNHHIQLALRAHVTMQRDVDYVVQDGKVIIVDPFTGRLMHGRRYSDGLHQAIEAKEGLEIQNESMTLATITFQNYFRMYEKLAGMTGTAKTEEEEFRNIYNMRVVVIPTNRPVIREDRPDLIYRTMEGKFRAVVEDIAARHAKGQPVLVGTVAIETSEMLSEMLKKRGIPHNVLNAKNHAKEAEIIAQAGQKGAVTIATNMAGRGTDIKLGEGVKELGGLAVIGTERHESRRIDNQLRGRSGRQGDPGVSQFYLSLEDELMRRFGSESLMAMMDRLGMDDSQPIQSKMVTKAVESAQKRVEGNNFDARKQLLQYDDVLREQREIIYRQRYEVLDSDNLRGIIEKMIQSVIERVVNAHTPKEEVPEEWNLKGLVEYLNAHLLPEGDVTEADLRGKEPEEMIELIWAKVKARYDEKEAQIPPEQMREFERVVVLRAVDMKWMNHIDAMEQLRQGIHLRAYGQVDPLREYQMEGYAMFEEMIAAIEEEVATYIMKAEIHHNLERQEVAKGEAVHPKEDGEEPKRKPVRKAVRVGRNDPCPCGSGKKYKHCCGRTV | not soluble
16 | MLLLRITMLEGRSTEQKAELARALSAAAAAAFDVPLAEVRLIIQEVPPTHWTVGGISMAELRQQASTSTQGQ | soluble
17 | DRLGPHRAAMMASLNDAVKAASQHHQAEAFGQGDMFGVLTDAPEEVENKYTQVPPWPEKVWLEGERETLGLYLTGHPINAYLKELNKYTSCRLKDATPTRRDQ | not soluble

Source: the DeepSol protein solubility set
